Assay results taken from paper PMC5843355, “Evaluation of the Trypanosoma brucei 6-oxopurine salvage pathway as a potential target for drug discovery” (PLoS Neglected Tropical Diseases, 2018).
Where a chain is given by its changes, count along the chain named. Values joined by “and” are separate entries in the source; they are usually repeats but may differ in a detail not shown here. Equal values may be shown once.

What was measured:
[1] = substrate: Nc1nc2nc[nH]c2c(=O)[nH]1; assay: purified protein, by the assay type; conditions: PRib-PP 1 mM, pH 8.4, 25°C
[2] = substrate: O=c1[nH]c(=O)c2[nH]cnc2[nH]1; assay: purified protein, by the assay type; conditions: other: HGXPRT, PRib-PP 1 mM, pH 8.4, 25°C
[3] = substrate: O=c1[nH]cnc2nc[nH]c12; assay: purified protein, by the assay type; conditions: PRib-PP 1 mM, pH 8.4, 25°C
[4] = substrate: Nc1nc2nc[nH]c2c(=O)[nH]1; assay: Steady-state kinetic constants of 6-oxopurine bases for HGPRT-I; type: biochemical, Trypanosoma brucei; conditions: other: HGPRT-I, PRib-PP 1 mM, pH 8.4, 25°C
Protocol: The concentration of enzyme in the assay (varied from 75–200 μg/ml for the two enzymes) and the concentration of PRib-PP was kept at 1 mM. The reaction was carried out using a 1.0 cm path length with a UV Visible spectrometer 1601 (Shimadzu) in the reaction buffer (0.1 M Tris, pH 8.4; 0.11 M MgCl2; at 25°C).

B1: HGXPRT (Trypanosoma brucei brucei TREU927) (protein)
chain: HSGHPLKPNFVGRDADGNVTVDGRSYPMAESVVATESTIHRSMKEMAQTLANAYKTLKHRDTHNKGNSALAPITDENPLIIISVLKGSYIFTADMVRYLGDCGLPNVVDFIRITSYRGTTKSSGTVQVLDNLRFTELTGKHVLIMEDIADTGRTMKLLVEKIRREYRPASLKVCVLVDKPGGRVVDFKPEFVCLTAPTRYVVGYGFEVNDRYRNYRHVFVLKPEYAKRYPSKL
Km ([1]; other: HGXPRT): 32 ± 4.8 µM
Km [2]: 31.9 ± 7.5 µM
kcat [2]: 3.66 s⁻¹
kcat/Km [2]: 110000 M⁻¹ s⁻¹
Km ([3]; other: HGXPRT): 30.6 ± 7.8 µM
kcat ([3]; other: HGXPRT): 2.4 s⁻¹
kcat/Km ([3]; other: HGXPRT): 80000 M⁻¹ s⁻¹

B2: HGPRT-I (Trypanosoma brucei brucei) (protein)
chain: EPACKYDFATSVLFTEAELHTRMRGVAQRIADDYSNCNLKPLENPLVIVSVLKGSFVFTADMVRILGDFGVPTRVEFLRASSYGHDTKSCGRVDVKADGLCDIRGKHVLVLEDILDTALTLREVVDSLKKSEPASIKTLVAIDKPGGRKIPFTAEYVVADVPNVFVVGYGLDYDQSYREVRDVVILKPSVYETWGKELERRKAAGEAKR
notes: 6x His-tag (N); AcTEV cleavage site (N); made in house; host or cells: E. coli One Shot BL21(DE3)
Km ([3]; other: HGPRT-I): 13.7 ± 2.9 µM
Km [4]: 16 µM and 15.9 ± 4.8 µM
kcat [4]: 0.38 s⁻¹
kcat/Km [4]: 20000 M⁻¹ s⁻¹

B3: HGPRT-II (Trypanosoma brucei brucei TREU927) (protein)
chain: B2 chain with I48V, K53R, G205V, E206K, R209L
Km ([1]; other: HGPRT-II): 7.1 ± 1.8 µM
Km ([3]; other: HGPRT-II): 4.2 ± 0.9 µM
kcat ([3]; other: HGPRT-II): 0.03 s⁻¹
kcat/Km ([3]; other: HGPRT-II): 7000 M⁻¹ s⁻¹
